One molecule from patent US20200216522A1 (DENALI THERAPEUTICS, published 2020) can be followed below.

This assay addresses T1, Tau 186-205 peptide (17G2.A1 peptide) (human, N-terminal biotin).
T1 peptide: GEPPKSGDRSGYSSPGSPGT
As to the kind of experiment: direct ELISA on biotinylated peptide. The protocol:
The peptides were diluted in 3% BSA/TBST in 0.5 log dilutions starting at 1 μg/mL and bound to neutravidin coated plates. Plates were washed 5× with TBST between all steps. 17G2.A1 was diluted to 5 μg/mL in 3% BSA/TBST and incubated for 1 hour at room temperature, followed by incubation with anti-mouse IgG-HRP (Novex) diluted 1/5000 in BSA/TBST for 45 minutes at room temperature. ELISAs were developed with 50 μL of 1-step TMB Ultra.

B1: murine anti-Tau hybridoma antibody 17G2.A1 (antibody, V domains shown)
VH: QVQLQQPGAELVGPGSSVKLSCKASGYTFINYWIDWMKQSPGQGLEWIGNIYPSDSESHYNQKFTDKATLTVDISSSTAYLQLSSLTSEDSAVYYCALYSKGYWGQGTSVTVSS
VL: DVLMTQTPLSLPVTLGDQASISCRSSQNIVHTNGNTYLEWYLQKPGQSPKLLIYKLSSRFSGVPDRFSGSGSGTDFTLKISRVEAEDLGVYYCFQGSHLPFTFGGGTKLEIKR
notes: mouse IgG from hybridoma; also called anti-Tau 17G2.A1
B1: the binding result was “binds”.
